# Experimental data: patent US20180072783A1 (published 2018)
# T1: Ang2 (UniProt O15123 19-496)
# T1 chain: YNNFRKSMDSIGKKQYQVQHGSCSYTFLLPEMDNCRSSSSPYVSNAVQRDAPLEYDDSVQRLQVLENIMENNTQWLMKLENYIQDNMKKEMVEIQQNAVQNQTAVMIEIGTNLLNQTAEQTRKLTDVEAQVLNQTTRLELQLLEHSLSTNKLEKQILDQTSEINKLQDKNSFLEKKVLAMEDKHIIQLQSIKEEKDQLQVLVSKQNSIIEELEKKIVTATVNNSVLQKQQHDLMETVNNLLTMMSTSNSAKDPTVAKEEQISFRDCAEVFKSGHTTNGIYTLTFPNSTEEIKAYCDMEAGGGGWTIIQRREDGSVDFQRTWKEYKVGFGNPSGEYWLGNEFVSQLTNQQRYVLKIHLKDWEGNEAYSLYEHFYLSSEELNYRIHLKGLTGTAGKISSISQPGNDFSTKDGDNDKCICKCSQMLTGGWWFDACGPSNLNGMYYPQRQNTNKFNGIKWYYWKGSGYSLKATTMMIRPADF
# Molecular target: T1, Ang2
# Assay: direct binding ELISA; MBP fusion
row,Binder,EC50
1,AQTNFMPMDQDELLLYEQFI [L1-7D MND (4H4)],0.411 nM
2,AQTNFMPMDNDEGLLYEQFI [L1-7D MDD (ZC12)],0.153 nM
3,AQTNFMPMDNDEALLYEQFI [L1-7D MQD (1A12)],> 100 nM
4,AQTNFMPMDQDEALLYEEFIC [L1-7D MAD (6A3)],> 100 nM
5,KSLSLSPGGNGTTNFMPMDQDEALLYEEFI [L1-7D MSD (7B2)],1.38 nM
6,AQTNFMPMDNDEGLLYEEFI [L1-7D MVD (2A1)],> 100 nM
7,AQTNFMPMDNDEALLYEEFI [L1-7D MHD (3C3)],17 nM
8,AQTNFMPMDDDELLLYEQFIL [L1-7D MKD (5A8)],> 100 nM
